# Paper PMC7928716
# Columns and labels:
# [1] = molecular target: AP2 μ2 160-435 (UniProt Q96CW1); assay: FP displacement of FITC-ATG9A probe; settings: reference: unphosphorylated peptide; sites Y781
# [2] = molecular target: AP2 μ2 160-435 (UniProt Q96CW1); assay: fluorescence polarisation
# [3] = molecular target: FITC-labeled ACE2(775–790) peptide, pSer783 (human); assay: fluorescence polarisation
# [4] = molecular target: FITC-labeled ACE2(775–790) peptide, pTyr781 (human); assay: fluorescence polarisation
# [5] = molecular target: FITC-labeled ACE2(775–790) peptide, unphosphorylated (human); assay: fluorescence polarisation
# [6] = molecular target: MAP1LC3A ATG8 (2–119) (human) (UniProt Q9H492); assay: fluorescence polarisation
# [7] = molecular target: MAP1LC3B ATG8 (2–119) (human) (UniProt Q9GZQ8); assay: fluorescence polarisation
# [8] = molecular target: MAP1LC3C ATG8 (2–125) (human) (UniProt Q9BXW4); assay: fluorescence polarisation
# Chain of MAP1LC3C ATG8 (2–125) (human) (Q9BXW4 2-125): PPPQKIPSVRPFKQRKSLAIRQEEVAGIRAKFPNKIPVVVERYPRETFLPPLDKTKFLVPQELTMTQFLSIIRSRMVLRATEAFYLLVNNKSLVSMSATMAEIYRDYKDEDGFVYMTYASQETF
# [9] = molecular target: GABARAP ATG8 (2-115) (human) (UniProt O95166); assay: fluorescence polarisation
# Chain of GABARAP ATG8 (2-115) (human) (O95166 2-115): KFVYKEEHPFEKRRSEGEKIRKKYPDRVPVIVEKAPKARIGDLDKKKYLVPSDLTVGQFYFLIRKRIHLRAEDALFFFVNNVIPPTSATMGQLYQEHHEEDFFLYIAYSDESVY
# [10] = molecular target: […]2 ATG8 (2–115) (human) (UniProt P60520); assay: fluorescence polarisation
# Chain of […]2 ATG8 (2–115) (human) (P60520 2-115): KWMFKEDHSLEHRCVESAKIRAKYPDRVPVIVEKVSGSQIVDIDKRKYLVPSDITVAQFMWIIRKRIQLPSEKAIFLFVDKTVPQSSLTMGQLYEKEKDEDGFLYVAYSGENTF
Substance,Kd [3] [µM],Kd [4] [µM],Kd [5] [µM],Ki [6] [µM],Ki [7] [µM],Ki [8] [µM],other results
ACE2 775-790 (from UniProt Q9BYF1) pTyr781 peptide,,,,,,,Ki [1]: lost; reference 101 ± 5
"ACE2(775–790) peptide, unphosphorylated, unlabeled (displacing peptide)",,,,,,,Ki [2]: 101 µM
AP2 μ2 (160–435) (from UniProt Q96CW1 160-435) (domain or fragment),30,> 100,60,,,,
FYN SH2 (142–251) (from UniProt P06241 142-251) (domain or fragment),> 100,,> 100,,,,
GABARAP ATG8 (2-115) (from UniProt O95166 2-115) (domain or fragment),> 100,> 100,> 100,,,,
MAP1LC3A ATG8 (2–119) (from UniProt Q9H492 2-119) (domain or fragment),> 100,> 100,> 100,,,,
NCK1 SH2 (275–377) (from UniProt P16333 275-377) (domain or fragment),> 100,> 100,> 100,,,,
"integrin β3 tail peptide, pSer778",,,,29.4,> 100,16.1,
"integrin β3 tail peptide, pThr777",,,,> 100,> 100,73,Ki [9]: 47 µM
"integrin β3 tail peptide, pThr779",,,,> 100,> 100,82,Ki [10]: > 100 µM
"integrin β3 tail peptide, pThr779/pTyr785",,,,8.5,15,8,Ki [9]: 17.8 µM
"integrin β3 tail peptide, pTyr785",,,,38,81,83,Ki [10]: 89 µM
"integrin β3 tail peptide, unphosphorylated",,,,> 100,> 100,> 100,Ki [9]: > 100 µM; Ki [10]: > 100 µM
